Experimental data taken from patent US20110318308A1, “LIPOCALIN-TYPE PROSTAGLANDIN D2 SYNTHASE AS A BIOMARKER FOR LUNG CANCER PROGRESSION AND PROGNOSIS” (WINTHROP-UNIVERSITY HOSPITAL, priority 2010, published 2011).
Entries after “also recorded” stand apart in the source; their conditions may differ.

Columns and labels:
[1] = system: A549 cells; conditions: cited from earlier work
[2] = system: A549 cells; experiment: MTS cell proliferation assay, A549 cells with exogenously added L-PGDS; format: cell-based, human; conditions: for A549 hyperproliferation: exogenously added L-PGDS, qualitative statement
Protocol: (§1) The effect of exogenously added L-PGDS on lung cell growth in culture was determined by MTS proliferation assay (Promega, Madison, Wis.). […] MLE cell proliferation was unaffected at L-PGDS concentrations up to […] but ceased at a concentration of 25 mg/l and above, as shown in FIG. 6.
(§2) Cell proliferation was measured with the use of a CellTiter 96 AQeous Non-Radioactive Cell Proliferation Assay (Promega, Madison, Wis.). Briefly, cells were plated in 96-well plates at a density of 500 cells/well in 200 μl of medium with 5% FBS. The cells were incubated at 37° C. in a humidified 5% CO2 atmosphere for the indicated time, after which 20 μl of combined MTS/PMS solution (Promega) was added per well. After a 2 h incubation at 37° C., absorbance at 490 nm was measured using an enzyme-linked immunosorbent assay (ELISA) plate reader. Data represent the average absorbance of three experiments each performed in triplicate.
The effect of exogenously added L-PGDS on A549 proliferation was observed.

[3] = system: A549 cells; experiment: PDGF-stimulated trans-well migration assay, A549 cells; format: cell-based, human; conditions: for decrease in PGDF stimulated A549 migration: 5 h, trans-well inserts; for PDGF-stimulated migration of A549 cells: exogenously added L-PGDS, qualitative statement
Protocol: Migration assays were performed using 24-well cell culture inserts with 8.0 μm polyethylene terephthalate cyclopore membranes (Falcon) as detailed in Lundberg M S, Curto K A, Bilato C, Monticone R E, Crow M T. Regulation of vascular smooth muscle migration by mitogen-activated protein kinase and calcium/calmodulin-dependent protein kinase II signaling pathways. J Mol Cell Cardiol 1998; 30:2377-89. The underside of the membrane was coated with 100 μl rat tail collagen type I (50 μg/ml) for 18-20 h, washed and air-dried before each experiment. Cells were trypsinized and re-suspended in RPMI. Then 2×10^4 cells/250 μl were loaded into the cell culture inserts. The inserts were then added to the wells of 24-well plates which were filled with PDGF-BB diluted in RPMI with 0.1% BSA, and where indicated, L-PGDS was also added to this medium below the inserts.
The chambers were then incubated at 37° C. for 5 h to allow for cell migration. Afterwards, cells were completely removed from the upper side of the membrane with a cotton swab and the remaining migrated cells fixed and stained with Diff-Quik® solution (Dade Behring, Newark, Del.). Results are reported as the mean+/−SEM of five different fields, from three experiments, counted at 200× magnification.
The effect of L-PGDS on A549 migration was examined using trans-well inserts. FIG. 7 illustrates a 42% decrease in PGDF stimulated A549 migration in the presence of […] L-PGDS and a 77% decrease in the presence of […] L-PGDS. […] Cells were cultured and loaded into collagen coated […] cell culture inserts in the absence or presence of L-PGDS (25 or 50 μg/ml) as described above. Actual fields at 200× magnification are presented.

[4] = system: mouse lung epithelial (MLE) cells; experiment: MTS cell proliferation assay, control mouse lung epithelial (MLE) cells; format: cell-based; conditions: 18 h incubation
Protocol: as §1, §2

[5] = system: Lipocalin-type prostaglandin D2 synthase (EC=5.3.99.2); conditions: alanine substitution in human L-PGDS; Zhou et al., FASEB J. 2010; cited from earlier work

CCCCC/C=C/C=C1/C(=O)C=C[C@@H]1C/C=C\CCCC(=O)O [15d-PGD2, 15-deoxy-Delta12,14-prostaglandin J2]
role in PGD2-induced apoptosis in A549 cells ([1]; PGD2 metabolites): likely candidate for the principal apoptotic inducer

CCCCC[C@H](O)/C=C/[C@H]1C(=O)C[C@H](O)[C@@H]1C/C=C\CCCC(=O)O [PGD2, Prostaglandin D2]
A549 cell death / apoptosis ([1]; A549 cells treated with PGD2): induces A549 cell death through the intrinsic apoptotic pathway | involvement of DP or CRTH2/DP2 in PGD2-induced A549 cell death ([1]; DP and CRTH2/DP2 blocked with BWA868C and ramatroban): does not appear to involve either DP or CRTH2/DP2

B1: L-PGDS: Lipocalin-type prostaglandin D2 synthase protein, exogenously added to cultured cells (protein, UniProt P41222 23-190, looked up)
Prostaglandin-H2 D-isomerase: APEAQVSVQPNFQQDKFLGRWFSAGLASNSSWLREKKAALSMCKSVVAPATDGGLNLTSTFLRKNQCETRTMLLQPAGSLGSYSYRSPHWGSTYSVSVVETDYDQYALLYSQGSKGPGEDFRMATLYSRTQTPRAELKEKFTAFCKAQGFTEDTIVFLPQTDKCMTEQ
A549 cell proliferation ([2]; L-PGDS 1-50 mg/l, 18 h incubation, MTS assay): marked inhibition | A549 hyper-proliferative growth (OD490nm) ([2]; exogenously added L-PGDS 0, 10, 25, 50 μg/ml, proliferation determined after 2 h): dose responsive inhibition | A549 hyperproliferation [2]: suppresses | A549 hyperproliferation ([2]; listed as LPGDS): suppress | decrease in PGDF stimulated A549 migration ([3]; 25 μg/μl L-PGDS): 42% | decrease in PGDF stimulated A549 migration ([3]; 50 μg/μl L-PGDS): 77% | A549 migration inhibition ([3]; 100 μg/μl L-PGDS (data not shown)): no further increase in migration inhibition | PDGF-stimulated migration of A549 cells [3]: suppresses; also recorded: inhibits | PDGF-stimulated migration of A549 cells ([3]; listed as LPGDS): suppress | L-PGDS concentration at which MLE cell proliferation ceased [4]: ≥ 25 mg/L | L-PGDS concentrations at which MLE cell proliferation was unaffected [4]: up to 10 mg/dl

B2: 59 K→A: human L-PGDS with residue 59 K changed to A (protein, UniProt P41222 23-190, looked up, variant K59A)
Prostaglandin-H2 D-isomerase: APEAQVSVQPNFQQDKFLGRWFSAGLASNSSWLREKAAALSMCKSVVAPATDGGLNLTSTFLRKNQCETRTMLLQPAGSLGSYSYRSPHWGSTYSVSVVETDYDQYALLYSQGSKGPGEDFRMATLYSRTQTPRAELKEKFTAFCKAQGFTEDTIVFLPQTDKCMTEQ
change of enzyme activity by sequence modification [5]: Increases enzyme activity about two-fold

B3: 149 Y→A: human L-PGDS with residue 149 Y changed to A (protein, UniProt P41222 23-190, looked up, variant Y149A)
Prostaglandin-H2 D-isomerase: APEAQVSVQPNFQQDKFLGRWFSAGLASNSSWLREKKAALSMCKSVVAPATDGGLNLTSTFLRKNQCETRTMLLQPAGSLGSYSYRSPHWGSTYSVSVVETDYDQYALLYSQGSKGPGEDFRMATLASRTQTPRAELKEKFTAFCKAQGFTEDTIVFLPQTDKCMTEQ
change of enzyme activity by sequence modification [5]: Increases enzyme activity about two-fold

B4: 83 F→A: human L-PGDS with residue 83 F changed to A (protein, UniProt P41222 23-190, looked up, variant F83A)
Prostaglandin-H2 D-isomerase: APEAQVSVQPNFQQDKFLGRWFSAGLASNSSWLREKKAALSMCKSVVAPATDGGLNLTSTALRKNQCETRTMLLQPAGSLGSYSYRSPHWGSTYSVSVVETDYDQYALLYSQGSKGPGEDFRMATLYSRTQTPRAELKEKFTAFCKAQGFTEDTIVFLPQTDKCMTEQ
change of enzyme activity by sequence modification [5]: Reduces enzyme activity about five-fold

B5: 64 M→A: human L-PGDS with residue 64 M changed to A (protein, UniProt P41222 23-190, looked up, variant M64A)
Prostaglandin-H2 D-isomerase: APEAQVSVQPNFQQDKFLGRWFSAGLASNSSWLREKKAALSACKSVVAPATDGGLNLTSTFLRKNQCETRTMLLQPAGSLGSYSYRSPHWGSTYSVSVVETDYDQYALLYSQGSKGPGEDFRMATLYSRTQTPRAELKEKFTAFCKAQGFTEDTIVFLPQTDKCMTEQ
change of enzyme activity by sequence modification [5]: Reduces enzyme activity almost ten-fold

B6: 131 L→A: human L-PGDS with residue 131 L changed to A (protein, UniProt P41222 23-190, looked up, variant L131A)
Prostaglandin-H2 D-isomerase: APEAQVSVQPNFQQDKFLGRWFSAGLASNSSWLREKKAALSMCKSVVAPATDGGLNLTSTFLRKNQCETRTMLLQPAGSLGSYSYRSPHWGSTYSVSVVETDYDQYALAYSQGSKGPGEDFRMATLYSRTQTPRAELKEKFTAFCKAQGFTEDTIVFLPQTDKCMTEQ
change of enzyme activity by sequence modification [5]: Reduces enzyme activity almost ten-fold

B7: 79 L→A: human L-PGDS with residue 79 L changed to A (protein, UniProt P41222 23-190, looked up, variant L79A)
Prostaglandin-H2 D-isomerase: APEAQVSVQPNFQQDKFLGRWFSAGLASNSSWLREKKAALSMCKSVVAPATDGGLNATSTFLRKNQCETRTMLLQPAGSLGSYSYRSPHWGSTYSVSVVETDYDQYALLYSQGSKGPGEDFRMATLYSRTQTPRAELKEKFTAFCKAQGFTEDTIVFLPQTDKCMTEQ
change of enzyme activity by sequence modification [5]: Reduces enzyme activity over ten-fold
